Results on one molecule are retold here after patent US20140017242A1, “ANTI-BRADYKININ B2 RECEPTOR (BKB2R) MONOCLONAL ANTIBODY” (Diamedica, Inc., priority 2010, published 2014).

The test system of assay [1] is ZDF fa/fa rats. The assay is described as follows: Oral glucose tolerance test in ZDF fa/fa rats, single dose of 5F12G1. Conditions: single s.c. administration 1.0, 0.2 and 0.04 mg/kg. Type of assay: in vivo, rat. The procedure:
This Example describes evaluation of oral glucose tolerance in Zucker Diabetic fatty (ZDF fa/fa) rats treated with 5F12G1 monoclonal antibody. Male ZDF fa/fa rats (Charles River) were maintained on a Harlan Tekled diet with Arrowhead drinking water ad libitum and allowed to acclimatize for one week. Six animals per group were treated according to the following treatment groups: 1, sterile PBS (vehicle control); 2, 1.0 mg/kg murine monoclonal antibody (mAb) 5F12G1 (VH comprising SEQ ID NO:1, VL comprising SEQ ID NO:2); 3, 0.2 mg/kg mAb 5F12G1; 4, 0.04 mg/kg mAb 5F12G1.
Oral Glucose Tolerance Test. The Oral Glucose Tolerance Test (OGTT) was performed on overnight fasted (16 hours) rats. Vehicle control (PBS) or 5F12G1 monoclonal antibody was administered subcutaneously thirty minutes prior to glucose loading. D-glucose was prepared in distilled water and administered orally at 2 g/kg body weight.
At multiple time points (0, 15, 30, 60, 90 and 120 minutes) blood samples of approximately 50 μl each were collected and processed to isolate the plasma. The plasma samples were analyzed for insulin by an ELISA method using an ultra sensitive mouse insulin ELISA kit (Crystal Chem, Inc., Downers Grove, Ill.). ELISA data were compiled and used to calculate the mean±standard error (SEM) with Microsoft Excel or GraphPad Prism version 5.00 for Windows (GraphPad Software, San Diego Calif. USA).

In assay [2] the test system is ZDF fa/fa rats. Briefly: 21-day ZDF fa/fa study: fasting blood glucose. The format is in vivo, rat. Particulars: for fasting blood glucose level: day 21. On the procedure: Animals. Male ZDF fa/fa rats were obtained from CRL (Kingston, N.Y.). Upon arrival, rats were seven weeks of age. The rats were housed individually per cage in a room with a photo cycle of 12 hours of light and 12 hours of dark and an ambient temperature of 70-72° F. and fed on regular rodent diet and water ad libitum. At the age of eleven weeks, rats were divided into six groups (Table 5) of eight rats per group based on fasting blood glucose levels. A sub-group of four rats per group was maintained in parallel to the main groups and was dosed similarly for twenty-one days for a hyperinsulinemic-euglycemic clamp study. […]
An oral glucose tolerance test (OGTT) was performed on Day 0, 7, 14 and 21 for each group of the study. Plasma samples were collected at each time point during OGTT to also measure insulin levels. Body weight, food and water intake were measured twice a week. Blood pressure and heart rates were monitored on Day 0, 7, 14 and 21 using a non-invasive tail cuff method (with five readings per rat taken and then averaged). Fasting serum samples were collected on Day 0, 7, 14 and 21 before OGTT for determination of triglyceride and total cholesterol level. Urine samples were collected on Day 7 and 14 for the determination of glycosuria. Glycated (Glycosylated) hemoglobin (HbA1c) was measured at the end of the study. Assay kits for these studies were as presented in Table 6, and were used according to the suppliers' instructions.
Fasting blood glucose levels were measured on Day 0, 7, 14 and 21.
The mean change in fasting blood glucose (mg/dL), serum cholesterol (mg/dL) and systolic blood pressure (mm Hg) from baseline (Day 0) to Day 21 was compared between the high-dose (5F12G1, 0.2 mg/kg) and negative control (MG2b-57, 0.2 mg/kg) groups using an analysis of covariance to adjust for baseline levels. The mean HbA1c percentage in high-dose (5F12G1, 0.2 mg/kg) rats was compared to the mean HbA1c percentage for negative control (MG2b-57, 0.2 mg/kg) rats using an unequal-variance, independent two-sample t-test. A significance level of a=0.05 was used for all tests, and all analyses were conducted using SAS statistical software (vs. 9.2, Cary, N.C., U.S.A.).

The target in the next assay is T1, BKB2 receptor (Homo sapiens, UniProt P30411).
T1 sequence (P30411 1-391): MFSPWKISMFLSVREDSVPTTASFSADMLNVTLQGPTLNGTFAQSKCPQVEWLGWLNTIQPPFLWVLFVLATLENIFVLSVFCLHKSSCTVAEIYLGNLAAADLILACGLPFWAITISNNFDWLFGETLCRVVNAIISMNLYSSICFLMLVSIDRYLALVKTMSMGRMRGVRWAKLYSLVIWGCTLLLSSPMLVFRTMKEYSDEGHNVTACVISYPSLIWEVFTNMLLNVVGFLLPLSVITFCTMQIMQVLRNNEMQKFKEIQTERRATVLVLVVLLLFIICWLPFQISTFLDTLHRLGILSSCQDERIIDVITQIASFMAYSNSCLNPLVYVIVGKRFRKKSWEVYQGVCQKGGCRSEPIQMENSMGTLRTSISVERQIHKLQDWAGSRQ
The assay is described as follows: Intracellular calcium release in CHO-K1/B2/Gα15 cells (FLIPR Calcium 4). Type of assay: cell-based. Also noted: expressed in transfected cells. Conditions: 0.5 mg/ml; normalized to the positive control; mean+/−SD, n=2. In general terms: Calcium assays in cells follow changes in intracellular calcium, usually with a dye or a luminescent sensor.

Description for BKB2 receptor: A stable CHO cell line expressing the human BKB2 receptor (CHO-K1/B2/Gα15) was used for the screening. The antibody was diluted to five different concentrations, from 0.5 mg/ml, via three-fold dilution increments, and screened on duplicate cell samples.
Expression and functional activity of the human BKB2 receptor in the CHO-K1/B2/Gα15 cell line were validated by exposure to the positive control, bradykinin.
To perform the assay, CHO-K1/B2/Gα15 cells were seeded in wells of a 384-well black-wall, clear-bottom plate at a density of 20,000 cells per well in 20 μL of growth medium 20 hours prior to the day of experiment, and maintained at 37° C./5% CO2. 20 μL of dye-loading solution (FLIPR™ Calcium 4 assay kit, Molecular Devices, Sunnyvale, Calif.) was added into each well and the plate was placed into a 37° C. incubator for 60 minutes, followed by 15 minutes at room temperature. The total reading time was 120 sec. After a 20-second reading to establish the baseline, the antibody or agonist were added to selected wells and the fluorescence signal was captured for another 100 seconds (21 s to 120 s). Readings from wells containing cells stimulated with assay buffer (0.03% Na3N PBS) containing 1% DMSO were chosen as the background values for screening; readings from wells containing cells stimulated with the agonist bradykinin (at 10 uM) were chosen as the positive control.

B1: 5F12G1: murine monoclonal anti-BKB2R antibody (IgG2b,κ), VH comprising SEQ ID NO:1, VL comprising SEQ ID NO:2 (antibody, listed as Mus musculus, V domains shown)
VH: EVKLEESGGGLVQPGGSMKLSCVVSGFTFSDYWMSWVRHSPEMGLEWVAEIRLKSDNYATHYAESVKGRFTISRDDSKSRLYLQINSLRGEDTGIYYCTRDYYAMEYWGQGTSVTVSS
VL: DVVMTQTPLSLPVSLGDQASISCRSSQTIVHSNGKTYLEWYLQKPGQSPKLLIYKVSNRFSGVPDRFSGSGSGTEFTLKISRVETEDLGVYYCFQASHVPYTFGGGTKLEIK
As for B1, in the assay with ZDF fa/fa rats [1], the “insulin activity in OGTT” value was “dose dependently increased insulin activity”. In addition, in the assay on ZDF fa/fa rats [1] (30 min before glucose 2 g/kg), the “area under curve (AUC) of blood glucose concentration after oral loading of glucose, compared to vehicle control” value is “decreased”. For the same molecule, the “increase of fasting blood glucose from baseline” value with ZDF fa/fa rats [2] (0.2 mg/kg s.c. every 3 days, Day 0 to Day 21) was 33.1 ± 19.7 mg/dL. The “fasting blood glucose level” value is “approximately 150.8+/−56.5 mg/dl” with ZDF fa/fa rats [2] (0.2 mg/kg s.c. every 3 days, baseline 117.6+/−14.2 (5F12G1), 116.5+/−25.8 (MG2b-57)); around 163 ± 21 mg/dL in the assay on ZDF fa/fa rats [2] (second of three values given respectively (0.04 mg/kg s.c. every 3 days)); around 190 ± 40 mg/dL in the assay on ZDF fa/fa rats [2] (third of three values given respectively (0.008 mg/kg s.c. every 3 days)). In addition, in the assay with BKB2 receptor, the percentage of activation is on record as 72.7+/−3.5%.
